Measurements reported in US20230131847A1, “RECOMBINASE COMPOSITIONS AND METHODS OF USE” (FLAGSHIP PIONEERING INNOVATIONS VI, LLC, priority 2019, published 2023).

How the values were obtained:
[1] = tested on: HEK293T landing pad cells; assay: Dual AAV delivery of serine integrase and template DNA, ddPCR integration assay; assay type: cell-based, human
Source text: FIGS. 3A and 3B: Dual AAV delivery of serine integrase and template DNA to mammalian cells. (A) Schematic representation of experiment. BXB1 serine recombinase and template DNA are co-delivered as separate AAV viral vectors into BXB landing pad cell lines. (B) Droplet digital PCR (ddPCR) assay to assess integration (% CNV/landing pad) of BXB1 serine recombinase and transgene into attP-attP* landing pad cell line 3 days and 7 days post-transduction. Black dots (to the right of each pair of gray dots) indicate template only samples and fall at 0% on the y-axis. Gray dots (to the left of each pair of black dots) indicate template+BXB1 integrase and fall between 1-6% on the y-axis. […]
Two transgene configurations are assessed to determine the integration, stability, and expression using different AAV donor formats (FIG. 1B): 1) template comprising attP* or attB* that utilizes formation of double-stranded circularized DNA following AAV transduction in the cell nucleus; or 2) template comprising double attachment sites, attP-attP* or attB-attB*, that can integrate into the mammalian genome independent of double-stranded circularization of the DNA following AAV transduction in the cell nucleus. […]

[2] = tested on: HEK293T landing pad cells; assay: mRNA delivery of integrase and AAV delivery of template DNA, ddPCR integration assay; assay type: cell-based, human
Source text: FIGS. 4A and 4B: mRNA delivery of BXB1 integrase and AAV delivery of template DNA to mammalian cells. (A) Schematic representation of experiment. mRNA delivery of BXB1 serine recombinase and AAV delivery of template DNA into BXB1 landing pad cell lines. (B) Droplet digital PCR (ddPCR) assay to assess integration (% CNV/landing pad) of BXB1 serine recombinase and transgene into attP-attP* landing pad cell line 3 days post mRNA transfection/AAV transduction. Black dots (to the right of each pair of gray dots) indicate template only samples and fall at 0% on the y-axis. Gray dots (to the left of each pair of black dots) indicate template+BXB1 integrase and fall at greater than 0% on the y-axis.
More specifically, a recombinase, e.g., an integrase with an amino acid sequence from Table 3A, 3B, or 3C, e.g., the Bxb1 recombinase protein (Table 3A Line No. 204), and a template DNA comprising the associated attachment site, e.g., a sequence from a LeftRegion or RightRegion of Table 2A, 2B, or 2C, e.g., the LeftRegion from Table 2A Line No. 204, are introduced into a HEK293T landing pad cell line. In this example, the recombinase is delivered as mRNA encoding the recombinase, and the template DNA is delivered via AAV.
HEK293T landing pad cells containing either the attP-attP* or attB-attB* landing pad sites (see Example 14) were seeded in a 48-well plate format at 40,000 cells/well. […] The timing of delivery was also assessed by the following conditions: 1) mRNA delivery of BXB1 integrase and AAV delivery of template DNA on the same day, 2) mRNA delivery of BXB1 integrase 24 h prior to AAV delivery of template DNA, 3) AAV delivery of template DNA 24 h prior to mRNA delivery of BXB1 integrase. ddPCR was performed to assess the integration mediated through mRNA delivery of a serine integrase and AAV delivery of a template comprising its attachment, ddPCR was performed to assay for integration (% CNV/landing pad) on day 3 post-transfection of mRNA and post-transduction of AAV. ˜2-4% integration was detected using an attP* donor to attB-attB* landing pad 293T cell line (FIG. 4B). […]

B1: BXB1 integrase: Bxb1 recombinase protein (Table 3A Line No. 204), delivered as AAV vector or mRNA (protein, UniProt P25426 1-333, looked up)
Integrase: MDAEAWLASEKRLIDNEEWTPPAEREKKAAASAITVEEYTKKWIAERDLAGGTKDLYSTHARKRIYPVLGDTPVAEMTPALVRAWWAGMGKQYPTARRHAYNVLRAVMNTAVEDKLVSENPCRIEQKAPAERDVEALTPEELDVVAGEVFEHYRVAVYILAWTSLRFGELIEIRRKDIMDDGETMKLRVRRGPARVGEKIVVGNTKTVRSKRPVTVPPHVAAMIRAHMADRTKMNKGPEALLVTTTRGQRLSKSAFTRSLKKGYAKIGRPDLRIHDLRAVGATLAAQAGATTKELMVRLGHTTPRMAMKYQMASAARDEEIARRMSELAGITP
- integration (% CNV/landing pad) by ddPCR ([1]; dual AAV2, attB* donor to attP-attP* landing pad cell line, day 3 and day 7 post-transduction, integrase MOI about 25,000, template MOI about 75,000): ~5%
- integration (% CNV/landing pad) by ddPCR, FIG. 3B ([1]; dual AAV, template+BXB1 integrase, attP-attP* landing pad cell line, 3 days and 7 days post-transduction): 1-6%
- highest % CNV/landing pad by ddPCR ([2]; AAV delivery of attachment site donor 24 h prior to mRNA delivery of BXB1 integrase, day 3): ~4%
- integration (% CNV/landing pad) by ddPCR ([2]; integrase mRNA about 1 μg + AAV template MOI about 75,000, attP* donor to attB-attB* landing pad 293T cell line, day 3): 2-4%
- integration (% CNV/landing pad) by ddPCR, FIG. 4B ([2]; template+BXB1 integrase, attP-attP* landing pad cell line, 3 days post mRNA transfection/AAV transduction): greater than 0%
